Source: patent US8889130B2, “Treatment of osteoarthritis and pain” (Abbvie Inc., priority 2011, dated 2014)

Molecular target: hIL-1β (Homo sapiens, UniProt P01584)
Assay: Surface plasmon resonance (Biacore) binding kinetics and affinity to hIL-1β
Details: antigen hIL-1β
Description: The kinetics of DVD-Ig molecules binding to rhIL1-α and rhIL1-β was determined by surface plasmon resonance-based measurements with a Biacore 3000 instrument (Biacore AB, Uppsala, Sweden) using HBS-EP (10 mM HEPES, pH 7.4, 150 mM NaCl, 3 mM EDTA, and 0.005% surfactant P20) at 25° C. All chemicals were obtained from Biacore AB (Uppsala, Sweden) or otherwise from a different source as described herein. Approximately, 5000 RU of goat anti-human IgG Fcγ fragment specific polyclonal antibody (Pierce Biotechnology Inc, Rockford, Ill.) diluted in 10 mM sodium acetate (pH 4.5) was directly immobilized across a CM5 research grade biosensor chip using a standard amine coupling kit according to manufacturer's instructions and procedures at […]. Unreacted moieties on the biosensor surface were blocked with ethanolamine. Modified carboxymethyl dextran surface in flowcell 2 and 4 was used as a reaction surface. Unmodified carboxymethyl dextran without goat anti-human IgG in flow cell 1 and 3 was used as the reference surface. For kinetic analysis, rate equations derived from the 1:1 Langmuir binding model were fitted simultaneously to association and dissociation phases of all ten injections (using global fit analysis) using the Bioevaluation 4.0.1 software. Purified DVD-Ig samples were diluted in HEPES-buffered saline for capture across goat anti-human IgG Fc specific reaction surfaces and injected over reaction matrices at a flow rate of […]. The association and dissociation rate constants, kon (M-1s-1) and koff (s-1) were determined under a continuous flow rate of […]. Rate constants were derived by making kinetic binding measurements at ten different antigen concentrations ranging from 1.25 to 1000 nM. The equilibrium dissociation constant (M) of the reaction between DVD-Ig molecule and rhIL1α/β was then calculated from the kinetic rate constants by the following formula: KD=koff/kon. Aliquots of rhIL1α/β samples were also simultaneously injected over a blank reference and reaction CM surface to record and subtract any nonspecific binding background to eliminate the majority of the refractive index change and injection noise. Surfaces were regenerated with two subsequent […] injections of 10 mM Glycine (pH 1.5) at a flow rate of […]. The anti-Fc antibody immobilized surfaces were completely regenerated and retained their full capture capacity over twelve cycles. The apparent stoichiometry of the captured DVD-Ig-rhIL1α/β complex was calculated under saturating binding conditions (steady-state equilibrium) using the following formula: […]

Sequence of hIL-1β (P01584 117-269): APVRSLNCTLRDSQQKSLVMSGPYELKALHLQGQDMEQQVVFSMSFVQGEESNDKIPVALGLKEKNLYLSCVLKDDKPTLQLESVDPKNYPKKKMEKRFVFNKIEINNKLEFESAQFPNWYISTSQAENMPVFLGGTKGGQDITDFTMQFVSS

B1: 13F5.G5: murine monoclonal antibody to human IL-1β; VH SEQ ID NO: 95, VL SEQ ID NO: 96 (antibody, listed as Mus musculus, V domains shown)
VH: QVQLQQSGAELVRPGSSVKISCKASGYAFSSYWMNWVKQRPGQGLEWIGQIYPGDGDTNYNGKFKGKATLTADKSSSTSYMQLSGLTSEDSAMYFCVRFPTGNDYYAMDYWGQGTSVTVSS
VL: NIVLTQSPASLAVSLGQRATISCRASESVDSYGNSYMHWYQQKPGQPPKLLIYLASNLESGVPARFSGSGSRTDFTLTIDPVEADDAATYYCQQNNEDPFTFGSGTKLEIKR
B1 was tested, and the “koff” value was 0.000621 s⁻¹ and the “kon” value was 2.13e+06 M⁻¹ s⁻¹.
